Reference: patent US5849493

Target: STF-1 / Pbx complex C2 of Tu-6 nuclear extract (UniProt P52947+P40424)
Assay: EMSA
Details: off-rate with 1000-fold unlabeled TSEII, room temperature; C2 supershift/block by STF-1 and Pbx antisera

STF-1 / Pbx complex C2 of Tu-6 nuclear extract, sequence (P52947 whole entry, chain 1 of 2): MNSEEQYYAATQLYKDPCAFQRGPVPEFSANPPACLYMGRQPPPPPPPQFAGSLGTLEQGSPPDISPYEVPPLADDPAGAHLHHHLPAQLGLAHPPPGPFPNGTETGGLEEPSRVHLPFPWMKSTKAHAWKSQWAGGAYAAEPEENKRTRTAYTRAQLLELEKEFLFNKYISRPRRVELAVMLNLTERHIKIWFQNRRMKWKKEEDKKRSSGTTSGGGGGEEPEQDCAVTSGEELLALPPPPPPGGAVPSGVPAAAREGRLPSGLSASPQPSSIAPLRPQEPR
STF-1 / Pbx complex C2 of Tu-6 nuclear extract, sequence (P40424 whole entry, chain 2 of 2): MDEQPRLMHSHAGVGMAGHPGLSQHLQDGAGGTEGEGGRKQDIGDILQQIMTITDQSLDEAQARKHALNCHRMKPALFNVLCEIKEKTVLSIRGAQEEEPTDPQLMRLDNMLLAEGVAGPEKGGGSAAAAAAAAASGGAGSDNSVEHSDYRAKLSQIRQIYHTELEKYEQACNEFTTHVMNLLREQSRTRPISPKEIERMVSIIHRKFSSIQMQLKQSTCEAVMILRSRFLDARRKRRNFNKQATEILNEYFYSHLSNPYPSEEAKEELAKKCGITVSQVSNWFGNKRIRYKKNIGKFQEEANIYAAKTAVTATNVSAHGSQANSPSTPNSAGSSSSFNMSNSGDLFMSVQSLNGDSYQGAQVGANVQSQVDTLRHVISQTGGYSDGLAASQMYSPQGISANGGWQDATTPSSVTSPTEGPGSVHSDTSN

Q: Which koff (min (half-life)) does the source give for “GATCTCAGTAATTAATCATGCA / AGTCATTAATTAGTACGTCATG [somatostatin TSEII]” here?
A: 15
